Data: patent publication US20100129344A1, “MEDICAL USES AND THERAPIES BASED UPON THE ACTION OF AZUROCIDIN ON IGFBP-1” (priority 2005, published 2010)

T1: IGFBP-1 (Homo sapiens, UniProt P08833)
T1 construct: purchased Kabi Pharmacia (Sweden), donated
T1 sequence (P08833 26-259): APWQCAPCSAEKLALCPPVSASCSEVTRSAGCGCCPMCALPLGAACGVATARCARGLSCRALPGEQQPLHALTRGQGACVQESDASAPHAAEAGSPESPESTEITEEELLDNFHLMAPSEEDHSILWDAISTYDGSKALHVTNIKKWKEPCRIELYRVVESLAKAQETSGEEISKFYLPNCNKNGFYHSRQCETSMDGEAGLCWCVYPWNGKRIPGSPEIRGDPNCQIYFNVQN


What was measured:
[1] = biological target: T1, IGFBP-1; assay: Azurocidin-dependent IGFBP-1 protease activity (SDS-PAGE, ECL or silver staining); type: biochemical; conditions: for effect on IGFBP-1 (proteolysis): commercial recombinant protein from mouse myeloma cells
Procedure: Recombinant phosphorylated IGFBP-1 was used as substrate and incubations were carried out under neutral conditions for 2 h at 37 C. IGFBP-1 fragments were separated on SDS-PAGE, and detected by ECL as described in the methods. Panel A: Incubations with 0.25 μL eluate (HE) from heparin affinity chromatography (50 μl urine equiv.) in the presence and absence of anti-azurocidin antibody; and 1 μl HE of the loading material (L), and the flow through after affinity chromatography on protein G columns without (G) and with bound anti-chymase (C) or anti-azurocidin (A) antibodies. Panel B: Incubations in the presence and absence of 25 ng anti-azurocidin antibody with increasing volumes of white cell extract from the individual with a specific IGFBP-1 protease in urine compared to the white cell extract pooled from 6 healthy subjects;
Recombinant IGFBP-1 was incubated with the eluate from heparin affinity chromatography (HE) with a ratio of azurocidin:BP-1 of 1:3,500. After the times indicated, proteins were detected by silver staining after SDS-PAGE;
Gels were fixed, dried and analysed with the Fuji PhosphoImage program (Fuji Co., Stockholm, Sweden). Biotinylated IGFBP-1 and its fragments were separated on 14% SDS-PAGE under reducing conditions, transferred to PVDF (Biorad, Sundbyberg, Sweden), incubated with neutravidin-horseradish peroxidase (Pierce Biotechnology Inc, Rochester, Ill.) and detected by ECL (Amersham Biosciences, Uppsala, Sweden). Silver staining of proteins and fragments was performed after denaturing 12% PAGE under reducing conditions (SilverQuest and NuPAGE, Invitrogen, Stockholm, Sweden).
Heparin affinity chromatography was carried out in batches using heparin-agarose gel (Pharmacia). Urine was diluted 1:5 in 10 mM sodium phosphate, with 0.25 M NaCl buffer, pH 7 and incubated with gel for 30 min at 4 C. The gel was transferred to a column and washed with 10 times the gel volume of buffer. Heparin binding proteins were eluted in loading buffer containing 2M NaCl and the eluate was desalted, concentrated using a 10 kDa spin column and stored at −80 C. Concentrated material derived from 700 ml urine were applied to C4 reverse-phase HPLC, in 0.1% TFA on an acetonitrile gradient of 0-100%. Immunoaffinity chromatography was performed using monoclonal anti-azurocidin antibody attached to protein G Sepharose (Sigma-Aldrich, Sweden). In brief, antibody bound gel was incubated with the eluate from heparin affinity chromatography for 2 h at 22 C, and transferred to a Bio-Spin chromatography column (BioRad). The flow-through was collected for analysis of protease activity. As controls, an additional column was prepared with a monoclonal antibody against human mast cell chymase and a second column with no bound antibody.

[2] = biological target: T1, IGFBP-1; assay: Sequence analysis of IGFBP-1 fragments after azurocidin-dependent proteolysis; type: biochemical
Procedure: A: Recombinant npIGFBP-1 was incubated without (−) and with (+) 0.25 μl partially purified azurocidin in a protease:substrate ratio of 1:3 500 for 2 h at 37 C. The fragments were purified on HPLC. N-, purified fragments with the N-terminal sequence of IGFBP-1, APWQCAP-, c-, small fragment with the sequence STYDGSK-, C-, purified C-terminal fragments with the sequence TNIKKWK-. Samples were separated on 12% SDS-PAGE and visualised by silver staining. Molecular mass markers are indicated by the arrows. B: Summary of sequence analysis of IGFBP-1 fragments after azurocidin-dependent proteolysis. N-terminal sequence analysis was performed on fragments purified by HPLC on 4 separate occasions. C-terminal sequence analysis was perform on one HPLC run. Cleavage sites are indicated by the arrows. a, the primary cleavage site present in 4 runs. b, a secondary cleavage site, present in 3 runs. c, cleavage sites, each identified in only one of the four runs. […]
The primary cleavage site in IGFBP-1 was determined by HPLC-separation of phosphorylated IGFBP-1 after incubation with heparin eluate, and HPLC purification of fragments, followed by N- and C-terminal sequencing. […] N- and C-terminal sequencer degradations were performed on HPLC purified proteins in ABI instruments as described (refs 2 and 3), From this analysis, the quantity of azurocidin quantity in urine was estimated to be 25 pmol/100 ml.

IGFBP-1 proteolytic activity after exposure to 0.1% TFA ([1]; 0.1% TFA in HPLC buffer, lyophilization, reconstitution in assay buffer)	IGFBP-1 proteolytic activity after reduction with dithiothreitol ([1]; data not shown)	secondary cleavage site in IGFBP-1 ([2]; present in 3 of the HPLC runs)	primary cleavage site in IGFBP-1 ([2]; present in all 4 HPLC runs, confirmed by C-terminal sequence analysis)	effect on IGFBP-1 (proteolysis) ([1]; data not shown)	effect on IGFBP-1 (proteolysis) ([1]; data not shown, listed as recombinant azurocidin)	Molecule	IGFBP-1 protease activity ([1]; after heparin affinity chromatography of urine)
abolished	loss of activity	Val^141-Thr^142	Ile^130-Ser^131			partially purified azurocidin: desalted eluate of heparin affinity chromatography of human urine, containing azurocidin, myeloperoxidase and lactoferrin (protein) IVGGRKARPRQFPFLASIQNQGRHFCGGALIHARFVMTAASCFQSQNPGVSTVVLGAYDLRRRERQSRQTFSISSMSENGYDPQQNLNDLMLLQLDREANLTSSVTILPLPLQNATVEAGTRCQVAGWGSQRSGGRLSRFPRFVNVTVTPEDQCRPNNVCTGVLTRRGGICNGDGGTPLVCEGLAHGVASFSLGPCGRGPDFFTRVALFRDWIDGVLNNPGP	present
				no effect	lacked activity	Recombinant human azurocidin^27-250: recombinant azurocidin 27-250 purified from murine myeloma cells, R&D Systems (protein) IVGGRKARPRQFPFLASIQNQGRHFCGGALIHARFVMTAASCFQSQNPGVSTVVLGAYDLRRRERQSRQTFSISSMSENGYDPQQNLNDLMLLQLDREANLTSSVTILPLPLQNATVEAGTRCQVAGWGSQRSGGRLSRFPRFVNVTVTPEDQCRPNNVCTGVLTRRGGICNGDGGTPLVCEGLAHGVASFSLGPCGRGPDFFTRVALFRDWIDGVLNNPGPGP	
